Data taken from patent US20220298218A1 (ANTAG THERAPEUTICS, published 2022).
*1 amine or outer side, *2 acyl side, *3 side chain or, on linkers, in order; H or OH if unused. Where no end group is shown, it is not given here. Side-chain parts run from the residue outwards. The star is where a group is joined. C18 diacid = O=C(O)CCCCCCCCCCCCCCCCC(=O)*; C16 diacid = O=C(O)CCCCCCCCCCCCCCC(=O)*; γGlu = O=C(O)[C@H](CCC(=O)[*:2])N[*:1]; AEEA = NCCOCCOCC(=O)O

Biological target: T1, human GIP receptor (human, UniProt P48546 22-466)
T1 sequence (looked up): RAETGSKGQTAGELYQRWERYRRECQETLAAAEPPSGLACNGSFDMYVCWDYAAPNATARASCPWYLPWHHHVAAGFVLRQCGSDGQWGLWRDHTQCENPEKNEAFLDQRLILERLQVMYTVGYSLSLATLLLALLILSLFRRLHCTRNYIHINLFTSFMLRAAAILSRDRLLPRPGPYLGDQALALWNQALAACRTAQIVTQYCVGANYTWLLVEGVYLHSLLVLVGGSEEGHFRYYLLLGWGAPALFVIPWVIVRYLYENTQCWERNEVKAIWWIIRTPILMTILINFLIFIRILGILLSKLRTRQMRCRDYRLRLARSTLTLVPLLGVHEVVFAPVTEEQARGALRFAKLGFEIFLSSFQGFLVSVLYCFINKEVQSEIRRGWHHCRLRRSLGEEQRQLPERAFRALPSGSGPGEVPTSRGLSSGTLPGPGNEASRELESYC
Assay: cell-based or functional assay

B1: AT424 (peptide)
peptide: SGTFISDYSIAMDRIK([AEEA-AEEA-AEEA-γGlu-C16 diacid])QQDFVNWLLAQRGRRNDW-OH
modifications: N-terminus assumed
SMILES: CC[C@H](C)[C@H](NC(=O)[C@H](CO)NC(=O)[C@H](Cc1ccc(O)cc1)NC(=O)[C@H](CC(=O)O)NC(=O)[C@H](CO)NC(=O)[C@@H](NC(=O)[C@H](Cc1ccccc1)NC(=O)[C@@H](NC(=O)CNC(=O)[C@@H](N)CO)[C@@H](C)O)[C@@H](C)CC)C(=O)N[C@@H](C)C(=O)N[C@@H](CCSC)C(=O)N[C@@H](CC(=O)O)C(=O)N[C@@H](CCCNC(=N)N)C(=O)N[C@H](C(=O)N[C@@H](CCCCNC(=O)COCCOCCNC(=O)COCCOCCNC(=O)COCCOCCNC(=O)CC[C@H](NC(=O)CCCCCCCCCCCCCCC(=O)O)C(=O)O)C(=O)N[C@@H](CCC(N)=O)C(=O)N[C@@H](CCC(N)=O)C(=O)N[C@@H](CC(=O)O)C(=O)N[C@@H](Cc1ccccc1)C(=O)N[C@H](C(=O)N[C@@H](CC(N)=O)C(=O)N[C@@H](Cc1c[nH]c2ccccc12)C(=O)N[C@@H](CC(C)C)C(=O)N[C@@H](CC(C)C)C(=O)N[C@@H](C)C(=O)N[C@@H](CCC(N)=O)C(=O)N[C@@H](CCCNC(=N)N)C(=O)NCC(=O)N[C@@H](CCCNC(=N)N)C(=O)N[C@@H](CCCNC(=N)N)C(=O)N[C@@H](CC(N)=O)C(=O)N[C@@H](CC(=O)O)C(=O)N[C@@H](Cc1c[nH]c2ccccc12)C(=O)O)C(C)C)[C@@H](C)CC
Question: B1 was tested. Which “cAMP antagonism” value did it give?
Answer: Its value is 35 nM.

Question: What about the “cAMP antagonism % inhib” value of the same binder?
Answer: The value was 100%.

Question: And the cAMP antagonism log?
Answer: The cAMP antagonism log was -7.5 log M.

B2: AT466 (peptide)
peptide: FISDYSIAMDKIK(C16 diacid)QQDFVNWLLAQKGKKNDWKHNITQ-OH
modifications: N-terminus assumed
SMILES: CC[C@H](C)[C@H](NC(=O)[C@H](CO)NC(=O)[C@H](Cc1ccc(O)cc1)NC(=O)[C@H](CC(=O)O)NC(=O)[C@H](CO)NC(=O)[C@@H](NC(=O)[C@@H](N)Cc1ccccc1)[C@@H](C)CC)C(=O)N[C@@H](C)C(=O)N[C@@H](CCSC)C(=O)N[C@@H](CC(=O)O)C(=O)N[C@@H](CCCCN)C(=O)N[C@H](C(=O)N[C@@H](CCCCNC(=O)CCCCCCCCCCCCCCC(=O)O)C(=O)N[C@@H](CCC(N)=O)C(=O)N[C@@H](CCC(N)=O)C(=O)N[C@@H](CC(=O)O)C(=O)N[C@@H](Cc1ccccc1)C(=O)N[C@H](C(=O)N[C@@H](CC(N)=O)C(=O)N[C@@H](Cc1c[nH]c2ccccc12)C(=O)N[C@@H](CC(C)C)C(=O)N[C@@H](CC(C)C)C(=O)N[C@@H](C)C(=O)N[C@@H](CCC(N)=O)C(=O)N[C@@H](CCCCN)C(=O)NCC(=O)N[C@@H](CCCCN)C(=O)N[C@@H](CCCCN)C(=O)N[C@@H](CC(N)=O)C(=O)N[C@@H](CC(=O)O)C(=O)N[C@@H](Cc1c[nH]c2ccccc12)C(=O)N[C@@H](CCCCN)C(=O)N[C@@H](Cc1c[nH]cn1)C(=O)N[C@@H](CC(N)=O)C(=O)N[C@H](C(=O)N[C@H](C(=O)N[C@@H](CCC(N)=O)C(=O)O)[C@@H](C)O)[C@@H](C)CC)C(C)C)[C@@H](C)CC
Question: B2 was tested. Which “cAMP antagonism” value did it give?
Answer: The value was 16 nM.

Question: And the “cAMP antagonism % inhib” value?
Answer: Its value is 90%.

Question: And the cAMP antagonism log?
Answer: Its cAMP antagonism log is -7.8 log M.

B3: AT426 (peptide)
peptide: SGTFISDYSIAMDRIK([AEEA-AEEA-AEEA-γGlu-C18 diacid])QQDFVNWLLAQRGRRNDW-OH
modifications: N-terminus assumed
SMILES: CC[C@H](C)[C@H](NC(=O)[C@H](CO)NC(=O)[C@H](Cc1ccc(O)cc1)NC(=O)[C@H](CC(=O)O)NC(=O)[C@H](CO)NC(=O)[C@@H](NC(=O)[C@H](Cc1ccccc1)NC(=O)[C@@H](NC(=O)CNC(=O)[C@@H](N)CO)[C@@H](C)O)[C@@H](C)CC)C(=O)N[C@@H](C)C(=O)N[C@@H](CCSC)C(=O)N[C@@H](CC(=O)O)C(=O)N[C@@H](CCCNC(=N)N)C(=O)N[C@H](C(=O)N[C@@H](CCCCNC(=O)COCCOCCNC(=O)COCCOCCNC(=O)COCCOCCNC(=O)CC[C@H](NC(=O)CCCCCCCCCCCCCCCCC(=O)O)C(=O)O)C(=O)N[C@@H](CCC(N)=O)C(=O)N[C@@H](CCC(N)=O)C(=O)N[C@@H](CC(=O)O)C(=O)N[C@@H](Cc1ccccc1)C(=O)N[C@H](C(=O)N[C@@H](CC(N)=O)C(=O)N[C@@H](Cc1c[nH]c2ccccc12)C(=O)N[C@@H](CC(C)C)C(=O)N[C@@H](CC(C)C)C(=O)N[C@@H](C)C(=O)N[C@@H](CCC(N)=O)C(=O)N[C@@H](CCCNC(=N)N)C(=O)NCC(=O)N[C@@H](CCCNC(=N)N)C(=O)N[C@@H](CCCNC(=N)N)C(=O)N[C@@H](CC(N)=O)C(=O)N[C@@H](CC(=O)O)C(=O)N[C@@H](Cc1c[nH]c2ccccc12)C(=O)O)C(C)C)[C@@H](C)CC
Question: B3 was tested. Which “cAMP antagonism” value did it give?
Answer: The value was 28 nM.

Question: And the “cAMP antagonism % inhib” value?
Answer: The value was 80%.

Question: And the cAMP antagonism log?
Answer: The cAMP antagonism log was -7.6 log M.

B4: AT464 (peptide)
peptide: FISDYSIAMDKIK(C16 diacid)QQDFVNWLLAQKGKKNDW-OH
modifications: N-terminus assumed
SMILES: CC[C@H](C)[C@H](NC(=O)[C@H](CO)NC(=O)[C@H](Cc1ccc(O)cc1)NC(=O)[C@H](CC(=O)O)NC(=O)[C@H](CO)NC(=O)[C@@H](NC(=O)[C@@H](N)Cc1ccccc1)[C@@H](C)CC)C(=O)N[C@@H](C)C(=O)N[C@@H](CCSC)C(=O)N[C@@H](CC(=O)O)C(=O)N[C@@H](CCCCN)C(=O)N[C@H](C(=O)N[C@@H](CCCCNC(=O)CCCCCCCCCCCCCCC(=O)O)C(=O)N[C@@H](CCC(N)=O)C(=O)N[C@@H](CCC(N)=O)C(=O)N[C@@H](CC(=O)O)C(=O)N[C@@H](Cc1ccccc1)C(=O)N[C@H](C(=O)N[C@@H](CC(N)=O)C(=O)N[C@@H](Cc1c[nH]c2ccccc12)C(=O)N[C@@H](CC(C)C)C(=O)N[C@@H](CC(C)C)C(=O)N[C@@H](C)C(=O)N[C@@H](CCC(N)=O)C(=O)N[C@@H](CCCCN)C(=O)NCC(=O)N[C@@H](CCCCN)C(=O)N[C@@H](CCCCN)C(=O)N[C@@H](CC(N)=O)C(=O)N[C@@H](CC(=O)O)C(=O)N[C@@H](Cc1c[nH]c2ccccc12)C(=O)O)C(C)C)[C@@H](C)CC
Question: Which results are given for B4?
Answer: cAMP antagonism: 50 nM; cAMP antagonism % inhib: 100%; cAMP antagonism log: -7.3 log M

B5: AT432 (peptide)
peptide: EGTFISDYSIAMDKIK([AEEA-AEEA-AEEA-γGlu-C16 diacid])QQDFVNWLLAQKGPSSGAPPPS-OH
modifications: N-terminus assumed
SMILES: CC[C@H](C)[C@H](NC(=O)[C@H](CO)NC(=O)[C@H](Cc1ccc(O)cc1)NC(=O)[C@H](CC(=O)O)NC(=O)[C@H](CO)NC(=O)[C@@H](NC(=O)[C@H](Cc1ccccc1)NC(=O)[C@@H](NC(=O)CNC(=O)[C@@H](N)CCC(=O)O)[C@@H](C)O)[C@@H](C)CC)C(=O)N[C@@H](C)C(=O)N[C@@H](CCSC)C(=O)N[C@@H](CC(=O)O)C(=O)N[C@@H](CCCCN)C(=O)N[C@H](C(=O)N[C@@H](CCCCNC(=O)COCCOCCNC(=O)COCCOCCNC(=O)COCCOCCNC(=O)CC[C@H](NC(=O)CCCCCCCCCCCCCCC(=O)O)C(=O)O)C(=O)N[C@@H](CCC(N)=O)C(=O)N[C@@H](CCC(N)=O)C(=O)N[C@@H](CC(=O)O)C(=O)N[C@@H](Cc1ccccc1)C(=O)N[C@H](C(=O)N[C@@H](CC(N)=O)C(=O)N[C@@H](Cc1c[nH]c2ccccc12)C(=O)N[C@@H](CC(C)C)C(=O)N[C@@H](CC(C)C)C(=O)N[C@@H](C)C(=O)N[C@@H](CCC(N)=O)C(=O)N[C@@H](CCCCN)C(=O)NCC(=O)N1CCC[C@H]1C(=O)N[C@@H](CO)C(=O)N[C@@H](CO)C(=O)NCC(=O)N[C@@H](C)C(=O)N1CCC[C@H]1C(=O)N1CCC[C@H]1C(=O)N1CCC[C@H]1C(=O)N[C@@H](CO)C(=O)O)C(C)C)[C@@H](C)CC
Question: With B5 as the binder, how does the “cAMP antagonism” value read?
Answer: Its value is 19 nM.

Question: And the “cAMP antagonism % inhib” value?
Answer: The value was 92%.

Question: And the cAMP antagonism log?
Answer: Its cAMP antagonism log is -7.7 log M.

B6: AT465 (peptide)
peptide: FISDYSIAMDKIK(C16 diacid)QQDFVNWLLAQKGKKNDWKHN-OH
modifications: N-terminus assumed
SMILES: CC[C@H](C)[C@H](NC(=O)[C@H](CO)NC(=O)[C@H](Cc1ccc(O)cc1)NC(=O)[C@H](CC(=O)O)NC(=O)[C@H](CO)NC(=O)[C@@H](NC(=O)[C@@H](N)Cc1ccccc1)[C@@H](C)CC)C(=O)N[C@@H](C)C(=O)N[C@@H](CCSC)C(=O)N[C@@H](CC(=O)O)C(=O)N[C@@H](CCCCN)C(=O)N[C@H](C(=O)N[C@@H](CCCCNC(=O)CCCCCCCCCCCCCCC(=O)O)C(=O)N[C@@H](CCC(N)=O)C(=O)N[C@@H](CCC(N)=O)C(=O)N[C@@H](CC(=O)O)C(=O)N[C@@H](Cc1ccccc1)C(=O)N[C@H](C(=O)N[C@@H](CC(N)=O)C(=O)N[C@@H](Cc1c[nH]c2ccccc12)C(=O)N[C@@H](CC(C)C)C(=O)N[C@@H](CC(C)C)C(=O)N[C@@H](C)C(=O)N[C@@H](CCC(N)=O)C(=O)N[C@@H](CCCCN)C(=O)NCC(=O)N[C@@H](CCCCN)C(=O)N[C@@H](CCCCN)C(=O)N[C@@H](CC(N)=O)C(=O)N[C@@H](CC(=O)O)C(=O)N[C@@H](Cc1c[nH]c2ccccc12)C(=O)N[C@@H](CCCCN)C(=O)N[C@@H](Cc1c[nH]cn1)C(=O)N[C@@H](CC(N)=O)C(=O)O)C(C)C)[C@@H](C)CC
Question: B6 was tested. Which “cAMP antagonism” value did it give?
Answer: Its value is 28 nM.

Question: What about the “cAMP antagonism % inhib” value of the same binder?
Answer: The value was 86%.

Question: What about the cAMP antagonism log of the same binder?
Answer: The cAMP antagonism log was -7.6 log M.
